Consider 4 molecules from article PMC8498639, “3D Domain Swapping Dimerization of the Receiver Domain of Cytokinin Receptor CRE1 From Arabidopsis thaliana and Medicago truncatula” (Frontiers in Plant Science, 2021).

Read-outs that look alike come from different tables or passages of the source.

Data set [1] deals with MtHPt1 (histidine-containing phosphotransfer protein 1 of Medicago truncatula) with N-terminal His6-MBP fusion (Medicago truncatula). The data set can be described thus: BLI; His6-MBP-MtHPt1 (104 nM) immobilised on Ni-NTA sensors; MtCRE1-IC at 2.5, 5, 10, 20 nM; SEC buffer (25 mM HEPES pH 7.5, 50 mM NaCl, 100 mM KCl, 1 mM TCEP) with 10% Kinetic Buffer, with 0.5 mM ATP and 2 mM MgCl2; 25°C; global 1:1 fit.
Chain of MtHPt1 (histidine-containing phosphotransfer protein 1 of Medicago truncatula) with N-terminal His6-MBP fusion (Medicago truncatula) (main, as listed by the source): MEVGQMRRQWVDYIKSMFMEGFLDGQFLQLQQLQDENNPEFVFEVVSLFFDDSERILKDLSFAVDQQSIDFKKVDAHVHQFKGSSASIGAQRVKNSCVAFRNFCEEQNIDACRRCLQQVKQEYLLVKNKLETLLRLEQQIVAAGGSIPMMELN

For data set [2] the target is unchanged. The data set is described as above. The source holds these as a separate data set.
Data set [3] deals with the molecule itself. The experiment in a line: crystal structure; AtCRE1-REC-K, 2.15 Å, space group P2(1)2(1)2, two subunits in the asymmetric unit; K+ bound.
Data set [4] deals with the molecule itself. The experiment in a line: native gel or EMSA; Native-PAGE of AtCRE1-REC compared with monomeric PR-10 proteins of similar calculated pI.
Data set [5] deals with the molecule itself. The experiment in a line: crystal structure; MtCRE1-REC-Ca, 2.5 Å, space group P3(1)21, one subunit in the asymmetric unit, dimer by a crystallographic twofold; Ca2+ bound.

Regarding “MtCRE1-IC (intracellular domain of Medicago truncatula CRE1, Ile352-Ser1003) (from UniProt G7LCC3 352-1003) (domain or fragment)”, the values for the Kd in data set [1] and in data set [2] were 12 nM and 12 to 54 nM, respectively.

B1: AtCRE1-REC, C-terminally truncated receiver domain Leu918-Phe1048 (Arabidopsis thaliana CRE1/AHK4) (domain or fragment)
chain: SNALLTGKKILVVDDNIVNRRVAAGALKKFGAEVVCAESGQVALGLLQIPHTFDACFMDIQMPQMDGFEATRQIRMMEKETKEKTNLEWHLPILAMTADVIHATYEECLKSGMDGYVSKPFEEENLYKSVAKSF
notes: cloning linker at the N-terminus (vector pMCSG68); Ser-Asn-Ala is printed for the longer construct from the same vector, Asn916-Ala917 of the linker are named for this one; AHK4/CRE1/WOL, Arabidopsis thaliana, receiver domain with a 9-residue C-terminal truncation, Leu918-Phe1048; numbers count on: UniProt Q9C5U0-2; also called AtCRE1-REC-K; source: Magic E. coli strain, purified (Ni-NTA, TEV, …)
For the molecule B1, in data set [3], the binding result was “binds”.

B2: AtCRE1-REC, complete receiver domain Leu918-Ser1057 (Arabidopsis thaliana CRE1/AHK4) (domain or fragment)
chain: SNALLTGKKILVVDDNIVNRRVAAGALKKFGAEVVCAESGQVALGLLQIPHTFDACFMDIQMPQMDGFEATRQIRMMEKETKEKTNLEWHLPILAMTADVIHATYEECLKSGMDGYVSKPFEEENLYKSVAKSFKPNPISPSS
notes: Ser-Asn-Ala cloning artifact at the N-terminus (vector pMCSG68); AHK4/CRE1/WOL, Arabidopsis thaliana, receiver domain Leu918-Ser1057; numbers count on: UniProt Q9C5U0-2; also called AtCRE1-REC-Mg; source: E. coli BL21 Gold, purified (Ni-NTA, TEV, Superdex75)
B2: in data set [4], the stoichiometry N – broadly, the number of molecules, sites or subunits per partner or assembly – was 2.

B3: MtCRE1-REC (receiver domain of cytokinin receptor CRE1 from Medicago truncatula) (domain or fragment, UniProt G7LCC3 856-994, looked up)
chain: SLLFGKKILVVDDNVVNRRVAAGALKNFGADVKCADSGKAALEMLQFPHKFDACFMDIQMPEMDGFEATRRIREMERTANEETNSECGERKSEFHLPILAMTADVIHATYEECLKCGMDGYVSKPFEEENLYQAVAKFF
notes: Made by proteolysis, not cloned as a domain; residues 936-948 are missing in the map; also called MtCRE1-REC-Ca; source: recombinant MtCRE1-IC from E. coli, limited proteolysis with thermolysin, purified (Superdex 75)
As for B3, the binding result in data set [5] is on record as “binds”.
